Earlier results in PMC9274133.
Each block holds one substance with its values, some of them ahead of it.

Columns and labels:
IL-6R (Homo sapiens) = IL-6R (Homo sapiens) (UniProt P08887)
gp130 (Homo sapiens) = gp130 (Homo sapiens) (UniProt P40189)
IL-11R (Homo sapiens) = IL-11R (Homo sapiens) (UniProt Q14626)
Sequence of IL-11R (Homo sapiens) (Q14626 23-370): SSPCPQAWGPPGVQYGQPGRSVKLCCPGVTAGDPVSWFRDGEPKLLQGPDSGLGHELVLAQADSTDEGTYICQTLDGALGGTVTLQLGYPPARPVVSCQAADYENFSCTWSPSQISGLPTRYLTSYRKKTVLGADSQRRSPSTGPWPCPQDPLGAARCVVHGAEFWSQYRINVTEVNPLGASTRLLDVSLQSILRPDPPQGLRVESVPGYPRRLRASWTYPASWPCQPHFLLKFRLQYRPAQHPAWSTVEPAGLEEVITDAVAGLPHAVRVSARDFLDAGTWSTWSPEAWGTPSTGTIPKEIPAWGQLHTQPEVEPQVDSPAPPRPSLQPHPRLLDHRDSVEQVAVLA

Sequence of IL-11 (P20809 22-199): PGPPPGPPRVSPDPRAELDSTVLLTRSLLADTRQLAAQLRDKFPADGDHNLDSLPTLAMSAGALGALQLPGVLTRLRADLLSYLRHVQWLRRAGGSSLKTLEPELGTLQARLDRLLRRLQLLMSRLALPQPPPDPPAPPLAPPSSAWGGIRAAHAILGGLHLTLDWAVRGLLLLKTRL
Sequence of IL-6R (Homo sapiens) (P08887 20-355): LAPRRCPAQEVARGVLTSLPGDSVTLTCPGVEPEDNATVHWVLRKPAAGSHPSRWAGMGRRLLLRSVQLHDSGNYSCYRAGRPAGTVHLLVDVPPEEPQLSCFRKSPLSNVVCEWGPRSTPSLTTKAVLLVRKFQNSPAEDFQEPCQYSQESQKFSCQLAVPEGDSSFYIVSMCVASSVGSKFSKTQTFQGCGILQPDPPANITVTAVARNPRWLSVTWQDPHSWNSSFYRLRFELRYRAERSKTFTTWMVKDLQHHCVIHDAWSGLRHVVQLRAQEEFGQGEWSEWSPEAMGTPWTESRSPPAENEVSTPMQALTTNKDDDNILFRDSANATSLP
Sequence of gp130 (Homo sapiens) (P40189 23-619): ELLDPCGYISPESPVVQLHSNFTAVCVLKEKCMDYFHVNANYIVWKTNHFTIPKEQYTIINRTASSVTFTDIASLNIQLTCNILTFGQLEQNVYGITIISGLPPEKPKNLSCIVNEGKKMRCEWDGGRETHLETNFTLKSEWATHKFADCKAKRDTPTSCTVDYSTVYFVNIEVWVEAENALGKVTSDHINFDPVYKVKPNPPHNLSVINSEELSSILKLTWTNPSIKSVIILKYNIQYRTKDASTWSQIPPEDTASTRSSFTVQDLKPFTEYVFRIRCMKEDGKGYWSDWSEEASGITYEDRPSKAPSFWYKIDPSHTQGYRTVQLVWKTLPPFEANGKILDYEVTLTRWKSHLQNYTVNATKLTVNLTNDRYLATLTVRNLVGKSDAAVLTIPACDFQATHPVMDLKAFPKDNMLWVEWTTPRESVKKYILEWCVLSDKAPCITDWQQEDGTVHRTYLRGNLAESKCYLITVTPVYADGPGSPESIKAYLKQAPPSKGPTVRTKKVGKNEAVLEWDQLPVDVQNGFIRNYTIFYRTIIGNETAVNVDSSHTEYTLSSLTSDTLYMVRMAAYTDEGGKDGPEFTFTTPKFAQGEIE

Kd (IL-6R (Homo sapiens)): 1 nM
Substance: IL-6 (from UniProt P05231)

Kd (gp130 (Homo sapiens)): 0.01 nM
Substance: IL-6/IL-6R complex (from UniProt P05231)

Kd (IL-11R (Homo sapiens)): 10 nM
Substance: IL-11 (from UniProt P20809)
